Results as given in patent publication US11912782B2, “BCMA monoclonal antibody-drug conjugate” (MedImmune, LLC, priority 2017, dated 2024).
“Also recorded” adds a separate entry of the source.

Assays:
BAFF-R = biological target: T1, BAFF-R (Homo sapiens, UniProt Q96RJ3); assay: FACS binding to Ad293 cells stably expressing BAFF-R
T1 construct: expressed in transfected cells
T1 sequence (Q96RJ3 1-184): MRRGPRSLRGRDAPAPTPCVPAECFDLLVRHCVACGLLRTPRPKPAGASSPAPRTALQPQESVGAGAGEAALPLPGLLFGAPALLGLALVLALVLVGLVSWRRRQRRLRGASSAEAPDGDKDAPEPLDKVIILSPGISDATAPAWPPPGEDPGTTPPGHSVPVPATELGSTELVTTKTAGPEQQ
Method: (§1) Antibodies 4679, 756, and 15B2GL (as described below) were analyzed by FACS to evaluate binding of antibodies to human BCMA, cynomolgus monkey BCMA, TACI, and BAFF-R using recombinant forms of the receptors stably expressed on Ad293 cells. Binding assays were performed by incubating antibodies 4679, 756, and 15B2GL with 200,000 cells at 4° C. for 45 minutes followed by two washes with PBS+2% FBS. Cells were then incubated with Alexa-Fluor® 647-labeled secondary antibodies at 4° C., followed by two washes in PBS+2% FBS. Anti-BAFF-R, anti-TACI, and anti-human BCMA-APC labeled antibodies were added according to manufacturer's recommended dilution in control wells. Cells were resuspended in 200 uL PBS+2% FBS+DAPI and antibody binding to live cells was analyzed using a Becton Dickinson™ Biosciences LSRII cytometer.

[1] = test system: H929 multiple myeloma cells; assay: Internalization by FACS on H929 cells; assay type: cell-based; settings: compared to J6M0 and the LO antibodies
Method: The ability of the 15B2GL antibody and LO clones of 15B2GL to bind, internalize, and kill H929 multiple myeloma cells in vitro was assessed using Fab-ZAP and by FACS binding to endogenous BCMA expressed on cell lines as described above. Briefly, antibodies were incubated with 200,000 cells for 30 minutes at 4° C. followed by two washes with PBS+2% FBS. Cells were resuspended in 100 uL cold PBS+2% FBS and kept at 4° C. At certain timepoints, cells were washed and resuspended in warm RPMI+10% FBS and placed into a 37° C. incubator, 5% CO2. At the end of the experiment, cells were washed and then incubated with Alexa-Fluor® 647-labeled secondary antibodies at 4° C., followed by two washes in PBS+2% FBS. Cells were resuspended in 200 μL PBS+2% FBS+DAPI and antibody binding to live cells was analyzed using a Becton Dickinson Biosciences LSRII cytometer.

cynomolgus monkey BCMA = assay: FACS binding to Ad293 cells stably expressing cynomolgus BCMA; settings: Ad293 cells expressing cynoBCMA
Method: as §1

TACI = biological target: T2, TACI (Homo sapiens, UniProt O14836); assay: FACS binding to Ad293 cells stably expressing TACI
T2 construct: expressed in transfected cells
T2 sequence (O14836 1-293): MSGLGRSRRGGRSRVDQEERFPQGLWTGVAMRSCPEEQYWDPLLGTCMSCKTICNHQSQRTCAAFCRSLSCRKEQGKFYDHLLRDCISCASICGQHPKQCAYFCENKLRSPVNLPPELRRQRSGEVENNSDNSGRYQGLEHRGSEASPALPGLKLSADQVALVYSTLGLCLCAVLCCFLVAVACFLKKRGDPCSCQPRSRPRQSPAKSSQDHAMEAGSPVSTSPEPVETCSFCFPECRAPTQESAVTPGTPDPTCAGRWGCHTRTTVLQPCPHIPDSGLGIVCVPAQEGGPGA
Method: as §1

monomeric human sBCMA = biological target: T3, monomeric human sBCMA (Homo sapiens, UniProt Q02223); assay: Kinetics/affinity measurement by SPR (BioRad ProteOn XPR36), antibody captured by anti-Fc, sBCMA flowed over; assay type: binding; settings: sBCMA 100-6.25 nM
T3 construct: is comprised of the entire extracellular domain of the molecule; purchased GenScript
T3 sequence (Q02223 1-54 limits assumed): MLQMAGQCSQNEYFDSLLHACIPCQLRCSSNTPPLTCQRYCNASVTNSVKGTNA
Method: The binding of 15B2GL monoclonal antibody and optimized clones I09, L15, P10, N22, and M02 (described in Example 1) was assessed using monomeric human sBCMA (GenScript, Piscataway, N.J.) using a ProteOn™ XPR36 instrument (Bio-Rad, Hercules, Calif.). The binding of J6M0 also was assessed for comparison. Standard amine coupling was used to immobilize 25 μg/ml anti-Fc polyclonal antibody (Jackson ImmunoResearch, West Grove, Pa.) prepared in 10 mM sodium acetate buffer (pH 4.5) to the surface of a ProteOn™ GLC biosensor chip (Bio-Rad, Hercules, Calif.) pre-activated with 20 mM EDAC (1-ethyl-3-(3-dimethylaminopropyl)carbodiimide hydrochloride) and 5 mM Sulfo-NHS (N-hydroxysulfosuccinimide) at a density of ˜200-600 resonance units (RU). 15B2GL, I09, L15, P10, N22, M02, and J6M0 were subsequently injected at a concentration of 1 μg/ml for capture by the immobilized anti-Fc polyclonal antibody. The sensorgram was recorded by flowing two-fold serial dilutions of sBCMA prepared in PBS (pH 7.4) with 0.005% (v/v) Tween®-20, ranging from 100-6.25 nM, over the captured surface for 150 seconds at 75 μL/minute with dissociation time of 600 seconds. ProteOn™ data analysis software was used to analyze the data.

B1: 15B2GL: germline form of anti-BCMA monoclonal antibody 15B2; VH SEQ ID NO: 7, VL SEQ ID NO: 8 (antibody, V domains shown)
VH: EVQLVESGGGLVKPGGSLRLSCAASGFTFRSYSMNWVRQAPGKGLEWVSSISGSSNYIYYADSVKGRFTISRDNAKNSLYLQMNSLRAEDTAVYYCARGGNYYVEYFQYWGQGTLVTVSS
VL: EIVLTQSPGTLSLSPGERATLSCRASQYISSNYLAWYQQKPGQAPRLLIYGASNRATGIPDRFSGSGSGTDFTLTISRLEPEDFAVYYCQQYGSSPITFGQGTKLEIK
- Binding to BAFF-R (BAFF-R): did not bind
- Internalization [1]: unique and rapid internalization
- Cynomolgus cross-reactivity (cynomolgus monkey BCMA): cynomolgus cross-reactive; also recorded: cyno-cross reactive
- Binding to TACI (TACI): did not bind
- Koff (monomeric human sBCMA): 2.27E−02
- Kon (monomeric human sBCMA): 3.73E+05
